Where a chain is given by its changes, count along the chain named. Numbers in names are those of the source.
T1: human IL-11 (human, UniProt P20809 22-199)
T1 sequence: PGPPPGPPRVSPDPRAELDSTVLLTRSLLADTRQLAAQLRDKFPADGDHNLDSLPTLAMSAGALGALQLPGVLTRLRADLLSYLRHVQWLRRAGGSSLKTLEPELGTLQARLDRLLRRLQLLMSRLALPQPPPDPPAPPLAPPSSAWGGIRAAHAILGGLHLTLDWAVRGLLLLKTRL

T2: murine IL-11 (mouse, UniProt P47873 22-199)
T2 sequence: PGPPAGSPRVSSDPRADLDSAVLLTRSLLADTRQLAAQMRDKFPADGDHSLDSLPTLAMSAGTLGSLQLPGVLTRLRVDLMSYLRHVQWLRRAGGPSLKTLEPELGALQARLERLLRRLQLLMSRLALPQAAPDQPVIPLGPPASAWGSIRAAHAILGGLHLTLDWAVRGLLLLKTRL

B1: TPP-31313 (antibody, IgG4, V domains shown)
VH: QVQLVESGGGVVQPGRSLRLSCAASGFTFSHYDMHWVRQAPGKGLEWVAVISYEGSNKFYADSVKGRFTISRDNSKNTLYLQMNSLRAEDTAVYYCARTPGSHFDYWGQGTLVTVSS
VL: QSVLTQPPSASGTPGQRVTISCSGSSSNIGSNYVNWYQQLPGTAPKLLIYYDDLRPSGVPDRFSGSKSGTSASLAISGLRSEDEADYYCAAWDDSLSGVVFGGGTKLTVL
notes: hIgG4 SPLE, lambda; also called FB; fundamental backbone
B2: TPP-31316 (antibody, IgG4, V domains shown)
VH: B1 VH with V11L
VL: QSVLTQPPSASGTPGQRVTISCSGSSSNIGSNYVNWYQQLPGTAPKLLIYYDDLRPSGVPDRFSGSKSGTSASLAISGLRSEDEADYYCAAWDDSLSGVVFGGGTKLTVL
notes: hIgG4 SPLE, lambda; FB - 1, back mutation VH-V11L
B3: TPP-31315 (antibody, IgG4, V domains shown)
VH: B1 VH with V5L
VL: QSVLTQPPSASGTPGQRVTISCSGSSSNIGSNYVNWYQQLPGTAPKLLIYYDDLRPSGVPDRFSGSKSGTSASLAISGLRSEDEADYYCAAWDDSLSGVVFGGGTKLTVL
notes: hIgG4 SPLE, lambda; FB - 1, back mutation VH-V5L
B4: TPP-31322 (antibody, IgG4, V domains shown)
VH: B1 VH
VL: QSVLTQPPSASGTPGQRVTISCSGSSSNIGNNYVNWYQQLPGTAPKLLIYYDDLRPSGVPDRFSGSKSGTSASLAISGLRSEDEADYYCAAWDDSLSGVVFGGGTKLTVL
notes: hIgG4 SPLE, lambda; FB - 1, back mutation VL-S31N
B5: TPP-31319 (antibody, IgG4, V domains shown)
VH: B1 VH with V37L
VL: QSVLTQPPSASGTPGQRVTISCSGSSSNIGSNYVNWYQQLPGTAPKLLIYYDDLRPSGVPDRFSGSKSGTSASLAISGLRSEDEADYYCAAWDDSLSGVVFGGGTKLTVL
notes: hIgG4 SPLE, lambda; FB - 1, back mutation VH-V37L
B6: TPP-31318 (antibody, IgG4, V domains shown)
VH: B1 VH with H35N
VL: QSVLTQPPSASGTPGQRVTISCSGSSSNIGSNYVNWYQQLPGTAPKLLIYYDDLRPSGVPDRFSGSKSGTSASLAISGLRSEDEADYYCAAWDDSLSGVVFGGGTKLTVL
notes: hIgG4 SPLE, lambda; FB - 1, back mutation VH-H35N
B7: TPP-31320 (antibody, IgG4, V domains shown)
VH: B1 VH with A49G
VL: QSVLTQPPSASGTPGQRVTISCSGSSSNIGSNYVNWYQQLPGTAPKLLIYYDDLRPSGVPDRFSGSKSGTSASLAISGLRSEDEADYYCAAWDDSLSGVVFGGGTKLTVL
notes: hIgG4 SPLE, lambda; FB - 1, back mutation VH-A49G
B8: TPP-31317 (antibody, IgG4, V domains shown)
VH: B1 VH with R16G
VL: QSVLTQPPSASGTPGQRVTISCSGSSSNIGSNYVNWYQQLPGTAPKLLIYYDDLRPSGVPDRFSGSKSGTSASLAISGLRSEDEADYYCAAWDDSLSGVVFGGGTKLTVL
notes: hIgG4 SPLE, lambda; FB - 1, back mutation VH-R16G
B9: TPP-31314 (antibody, IgG4, V domains shown)
VH: B1 VH with Q1E
VL: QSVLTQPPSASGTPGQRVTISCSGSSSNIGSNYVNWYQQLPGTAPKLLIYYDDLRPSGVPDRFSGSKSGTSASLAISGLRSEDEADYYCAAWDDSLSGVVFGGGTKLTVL
notes: hIgG4 SPLE, lambda; FB - 1, back mutation VH-Q1E
B10: TPP-31323 (antibody, IgG4, V domains shown)
VH: B1 VH
VL: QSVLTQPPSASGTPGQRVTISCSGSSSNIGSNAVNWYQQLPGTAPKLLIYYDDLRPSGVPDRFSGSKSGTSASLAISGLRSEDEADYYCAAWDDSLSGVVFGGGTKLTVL
notes: hIgG4 SPLE, lambda; FB - 1, back mutation VL-Y33A
B11: TPP-31321 (antibody, IgG4, V domains shown)
VH: B1 VH with S63F
VL: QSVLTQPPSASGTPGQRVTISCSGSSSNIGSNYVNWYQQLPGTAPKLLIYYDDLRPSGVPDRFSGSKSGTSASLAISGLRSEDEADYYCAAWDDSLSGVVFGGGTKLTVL
notes: hIgG4 SPLE, lambda; FB - 1, back mutation VH-S63F
B12: TPP-19841 (antibody, V domains shown)
VH: EVQLLESGGGLVQPGGSLRLSCAASGFTFSSYGMHWVRQAPGKGLEWVSVISYDGSYKYYADSVKGRFTISRDNSKNTLYLQMNSLRAEDTAVYYCAAGVPDYWGQGTLVTVSS
VL: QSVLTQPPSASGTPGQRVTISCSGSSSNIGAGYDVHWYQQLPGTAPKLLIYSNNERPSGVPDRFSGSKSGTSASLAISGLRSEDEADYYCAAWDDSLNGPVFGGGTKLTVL
B13: TPP-19861 (antibody, V domains shown)
VH: B12 VH with G33A
VL: QSVLTQPPSASGTPGQRVTISCTGSSSNIGAGYDVHWYQQLPGTAPKLLIYSNNERPSGVPDRFSGSKSGTSASLAISGLRSEDEADYYCAAWDDSLNGPVFGGGTKLTVL
B14: TPP-19850 (antibody, V domains shown)
VH: B12 VH
VL: B13 VL with N98S
B15: TPP-19872 (antibody, V domains shown)
VH: B12 VH with S49A
VL: B13 VL
B16: TPP-19873 (antibody, V domains shown)
VH: B12 VH with Y57N
VL: B13 VL
B17: TPP-19865 (antibody, V domains shown)
VH: B12 VH with D54S
VL: B13 VL
B18: TPP-19874 (antibody, V domains shown)
VH: B12 VH with A98R
VL: B13 VL
B19: TPP-19845 (antibody, V domains shown)
VH: B12 VH
VL: B13 VL with H36Y
B20: TPP-19842 (antibody, V domains shown)
VH: B12 VH
VL: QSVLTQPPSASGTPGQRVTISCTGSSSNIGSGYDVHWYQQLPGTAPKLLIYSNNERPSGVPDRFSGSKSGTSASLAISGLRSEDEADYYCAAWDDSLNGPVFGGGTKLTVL
B21: TPP-19867 (antibody, V domains shown)
VH: B12 VH with Y57S
VL: B13 VL
B22: TPP-19848 (antibody, V domains shown)
VH: B12 VH
VL: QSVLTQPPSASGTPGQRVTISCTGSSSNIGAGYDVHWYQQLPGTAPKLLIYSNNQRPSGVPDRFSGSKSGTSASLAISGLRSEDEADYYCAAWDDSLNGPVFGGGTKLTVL
B23: TPP-19863 (antibody, V domains shown)
VH: B12 VH with V50A
VL: B13 VL
B24: TPP-19864 (antibody, V domains shown)
VH: B12 VH with Y53G
VL: B13 VL
B25: TPP-19847 (antibody, V domains shown)
VH: B12 VH
VL: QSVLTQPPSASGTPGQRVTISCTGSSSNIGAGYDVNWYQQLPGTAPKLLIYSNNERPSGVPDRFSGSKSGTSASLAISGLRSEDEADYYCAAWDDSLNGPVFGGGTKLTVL
B26: TPP-19849 (antibody, V domains shown)
VH: B12 VH
VL: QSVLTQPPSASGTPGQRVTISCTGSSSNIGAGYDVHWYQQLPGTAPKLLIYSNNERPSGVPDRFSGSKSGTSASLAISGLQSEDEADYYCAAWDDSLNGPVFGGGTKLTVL
B27: TPP-19868 (antibody, V domains shown)
VH: B12 VH with K58T
VL: B13 VL
B28: TPP-19843 (antibody, V domains shown)
VH: B12 VH
VL: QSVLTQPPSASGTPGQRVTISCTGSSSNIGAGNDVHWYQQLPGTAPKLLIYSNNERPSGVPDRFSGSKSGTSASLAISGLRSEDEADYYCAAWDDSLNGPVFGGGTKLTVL
B29: TPP-19862 (antibody, V domains shown)
VH: B12 VH with H35S
VL: B13 VL
B30: TPP-19866 (antibody, V domains shown)
VH: B12 VH with S56G
VL: B13 VL

The binders below were run against T1, human IL-11 (assay: cell-based or functional assay).

Row | IC50, RGA | Binder
1 | 5.4 nM | B1
2 | 3.2 nM | B2
3 | 2.9 nM | B3
4 | 1.7 nM | B4
5 | 2.3 nM | B5
6 | 3.8 nM | B6
7 | 2.8 nM | B7
8 | 2.9 nM | B8
9 | 2.4 nM | B9
10 | 7.1 nM | B10
11 | 2.8 nM | B11

Each binder was assayed against T2, murine IL-11 (assay: cell-based or functional assay).

Row | IC50, RGA | Binder
12 | 1.6 nM | B1
13 | 1.1 nM | B2
14 | 1.7 nM | B3
15 | 1.4 nM | B4
16 | 1.6 nM | B5
17 | 1.2 nM | B6
18 | 1.1 nM | B7
19 | 1.5 nM | B8
20 | 1.2 nM | B9
21 | 3.5 nM | B10
22 | 1 nM | B11

The binders below were run against T1, human IL-11 (assay: SPR, IgG captured via anti-human Fc, IL-11 as analyte).
Method: (§1) Antibody binding affinity to hIL-11 (Invigate, Germany, e.g., lot #C121021-19) and mIL-11 (Invigate, Germany, e.g., lot #C210819-09) was detected using Biacore 8K. Each antibody was captured on an anti-human IgG Fc antibody immobilized CM5 sensor chip (GE). hIL-11 and mIL-11 at different concentrations (0, 5, 15.82 and 50 nM) in 1×HBS-EP+ (pH 7.4) (GE healthcare) were injected over the sensor chip at a flow rate of 30 μL/min for an association phase of 120 s, followed by 200 s dissociation phase. The chip was then regenerated by 10 mM Glycine, pH 1.5 after each binding cycle.
(§2) The sensorgrams of blank surface and buffer channel were subtracted from the test sensorgrams. The experimental data was fitted by 1:1 model using Langmiur analysis. Molecular weight of 19.3 kDa was used to calculate the molar concentration of human and mouse IL-11.
(§3) 16 AB were produced as described in Example 21 and binding of purified AB to human and mouse IL-11 was analyzed using SPR as described in Example 21.

Row | Kd | Binder
23 | 0.89 nM | B1
24 | 0.85 nM | B2
25 | 0.87 nM | B3
26 | 0.81 nM | B4
27 | 0.83 nM | B5
28 | 0.89 nM | B6
29 | 0.95 nM | B7
30 | 0.83 nM | B8
31 | 0.87 nM | B9
32 | 2.4 nM | B10
33 | 0.85 nM | B11

The binders below were run against T2, murine IL-11 in the same assay as above.
Method: as §1, §2, §3

Row | Kd | Binder
34 | 0.64 nM | B1
35 | 0.62 nM | B2
36 | 0.65 nM | B3
37 | 0.69 nM | B4
38 | 0.59 nM | B5
39 | 0.3 nM | B6
40 | 0.56 nM | B7
41 | 0.58 nM | B8
42 | 0.59 nM | B9
43 | 1.7 nM | B10
44 | 0.67 nM | B11

What follows are binders tested against T1, human IL-11 (assay: SPR, antibody captured, IL-11 as analyte).
Method: (§4) Antibodies were captured via anti-mouse Fc IgGs (“Mouse antibody capture kit, Order No. BR100383, Cytiva) covalently amine coupled to a Series S CM5 sensor chip (Cytiva). The amine coupling was carried out according to the manufacturer's instructions using 1-ethyl-3-(3-dimethylaminopropyl) carbodiimide hydrochloride (EDC), N-hydroxysuccinimide (NHS) and ethanolamine HCl, pH 8.5 (“Amine Coupling Kit” BR-1000-50, Cytiva.). Human IL-11 (Invigate, e.g., lot #C121021-19), and murine IL-11 (Invigate, e.g., lot #C210819-09) were used as analytes. […] Based on that experiment an IL-11 concentration range was chosen to optimally determine kinetics and affinity of anti-IL-11 antibodies in multicycle kinetics mode. The sensor surface was regenerated with glycine pH 1.7 after each antigen injection. Obtained sensorgrams were double referenced (subtraction of reference flow cell signal and buffer injection) and were fitted to a 1:1 Langmuir binding model to derive kinetic data using the Biacore T200 Evaluation software or the Biacore Insight software.
(§5) Deviations from closest human germlines in CDR regions and FW regions and potential CMC relevant residues in CDR regions were adjusted by site directed mutagenesis following standard molecular protocols or purchased from DNA synthesis providers. The generated DNA constructs were expressed by transient transfection of mammalian cells and purified as described in Example 15. Antibodies were then tested for human IL-11 and murine IL-11 binding by SPR as described in Example 16.

Row | Kd | Binder
45 | 6.3 nM | B12
46 | 17 nM | B13
47 | 6.5 nM | B14
48 | 5.5 nM | B15
49 | 21 nM | B16
50 | 25 nM | B17
51 | 99 nM | B18
52 | 20 nM | B19
53 | 7.3 nM | B20
54 | 27 nM | B21
55 | 52 nM | B22
56 | 4.7 nM | B23
57 | 13 nM | B24
58 | 9 nM | B25
59 | 5.9 nM | B26
60 | 6.2 nM | B27
61 | 17 nM | B28
62 | 19 nM | B29
63 | 8.5 nM | B30

What follows are binders tested against T2, murine IL-11 (assay: SPR, antibody captured, IL-11 as analyte).
Method: as §4, §5

Row | Kd | binding result | Binder
64 | 0.79 nM |  | B12
65 | 28 nM |  | B13
66 | 1.6 nM |  | B14
67 | 0.47 nM |  | B15
68 | 4 nM |  | B16
69 | 3.6 nM |  | B17
70 | 9.9 nM |  | B18
71 | 5 nM |  | B19
72 | 0.66 nM |  | B20
73 | 3.4 nM |  | B21
74 | 2.4 nM |  | B22
75 | 0.64 nM |  | B23
76 |  | no binding | B24
77 | 2.1 nM |  | B25
78 | 0.68 nM |  | B26
79 | 0.72 nM |  | B27
80 | 7.5 nM |  | B28
81 | 4.7 nM |  | B29
82 | 1.4 nM |  | B30

From US20240317847A1 (Bayer, published 2024)
